The values that follow come from patent publication US20210371491A1 (ALBERT LUDWIGS UNIVERSITAET FREIBURG, published 2021).

The assay concerns the target prostate specific membrane antigen (PSMA) (UniProt Q04609 1-750, limits assumed). Description: cell-based or functional assay.

Sequence of prostate specific membrane antigen (PSMA) (Q04609 whole entry, form in doubt): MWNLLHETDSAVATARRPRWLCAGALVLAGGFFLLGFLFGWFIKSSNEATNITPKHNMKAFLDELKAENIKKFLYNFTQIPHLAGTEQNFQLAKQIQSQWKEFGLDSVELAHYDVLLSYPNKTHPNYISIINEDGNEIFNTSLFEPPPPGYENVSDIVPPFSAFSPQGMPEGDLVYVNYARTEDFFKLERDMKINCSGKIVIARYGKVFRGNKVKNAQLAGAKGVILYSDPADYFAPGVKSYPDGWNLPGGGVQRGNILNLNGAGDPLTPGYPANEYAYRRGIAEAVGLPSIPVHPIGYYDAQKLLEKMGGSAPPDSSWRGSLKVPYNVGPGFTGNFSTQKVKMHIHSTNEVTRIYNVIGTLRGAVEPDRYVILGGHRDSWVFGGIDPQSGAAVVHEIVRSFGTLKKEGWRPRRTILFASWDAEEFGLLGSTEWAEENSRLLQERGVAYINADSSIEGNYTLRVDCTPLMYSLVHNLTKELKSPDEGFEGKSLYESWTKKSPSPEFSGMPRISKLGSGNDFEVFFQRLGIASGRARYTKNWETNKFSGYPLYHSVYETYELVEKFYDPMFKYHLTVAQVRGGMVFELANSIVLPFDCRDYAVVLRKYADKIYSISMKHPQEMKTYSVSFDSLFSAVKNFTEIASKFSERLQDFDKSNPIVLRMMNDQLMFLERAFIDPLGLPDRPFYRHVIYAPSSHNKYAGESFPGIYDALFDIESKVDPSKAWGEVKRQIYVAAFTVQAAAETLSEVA

B1: CAR41, anti-PSMA CAR with 4-1BB co-stimulatory domain (scFv D7) (other)
chain: MDFQVQIFSFLLISASVIMSRMAQVQLQQSGAELVEPGASVKLSCKASGYTFTYFDINWLRQRPEQGLEWIGGISPGDGNTNYNENFKGKATLTIDKSSTTAYIQLSRLTSEDSAVYFCARDGNFPYYAMDSWGQGTSVTVSSAKTTPKLGGGGSGGGGSGGGGSARVDIELTQSPLSLPVILGDQASISCRSSQSLVHSNGNTYLHWFLQKPGQSPKLLIYTVSNRFSGVPDRFSGSGSGTDFTLKISRVEAEDLGVYFCSQSTHVPTFGGGTKLEIKRAAALPAEPKSPDKTHTCPPCPAPPVAGPSVFLFPPKPKDTLMIARTPEVTCVVVDVSHEDPEVKFNWYVDGVEVHNAKTKPREEQYNSTYRVVSVLTVLHQDWLNGKEYKCKVSNKALPAPIEKTISKAKGQPREPQVYTLPPSRDELTKNQVSLTCLVKGFYPSDIAVEWESNGQPENNYKTTPPVLDSDGSFFLYSKLTVDKSRWQQGNVFSCSVMHEALHNHYTQKSLSSLSPGKKIYIWAPLAGTCGVLLLSLVITLYCKRGRKKLLYIFKQPFMRPVQTTQEEDGCSCRFPEEEEGGCELLRVKFSRSADAPAYQQGQNQLYNELNLGRREEYDVLDKRRGRDPEMGGKPRRKNPQEGLYNELQKDKMAEAYSEIGMKGERRRGKGHDGLYQGLSTATKDTYDALHMQALPPR
Regarding B1, the “cytotoxicity (XTT assay), PSMA expressing cells eliminated at E:T ratio 1:1” value is ≤ 90%.

B2: CAR28, anti-PSMA CAR with CD28 co-stimulatory domain (scFv D7) (other)
chain: MDFQVQIFSFLLISASVIMSRMAQVQLQQSGAELVEPGASVKLSCKASGYTFTYFDINWLRQRPEQGLEWIGGISPGDGNTNYNENFKGKATLTIDKSSTTAYIQLSRLTSEDSAVYFCARDGNFPYYAMDSWGQGTSVTVSSAKTTPKLGGGGSGGGGSGGGGSARVDIELTQSPLSLPVILGDQASISCRSSQSLVHSNGNTYLHWFLQKPGQSPKLLIYTVSNRFSGVPDRFSGSGSGTDFTLKISRVEAEDLGVYFCSQSTHVPTFGGGTKLEIKRSDPAEPKSPDKTHTCPPCPAPPVAGPSVFLFPPKPKDTLMIARTPEVTCVVVDVSHEDPEVKFNWYVDGVEVHNAKTKPREEQYNSTYRVVSVLTVLHQDWLNGKEYKCKVSNKALPAPIEKTISKAKGQPREPQVYTLPPSRDELTKNQVSLTCLVKGFYPSDIAVEWESNGQPENNYKTTPPVLDSDGSFFLYSKLTVDKSRWQQGNVFSCSVMHEALHNHYTQKSLSLSPGKKDPKFWVLVVVGGVLACYSLLVTVAFIIFWVRSKRSRLLHSDYMNMTPRRPGPTRKHYQAYAAARDFAAYRSLRVKFSRSADAPAYQQGQNQLYNELNLGRREEYDVLDKRRGRDPEMGGKPRRKNPQEGLYNELQKDKMAEAYSEIGMKGERRRGKGHDGLYQGLSTATKDTYDALHMQALPPR
Regarding B2, the “cytotoxicity (XTT assay), PSMA expressing cells eliminated at E:T ratio 1:1” value is ≤ 90% and the “cytotoxicity (XTT assay), target cells eliminated at E:T ratio 1:4, 48 h co-culture with C4-2 cells” value is ~90%.
